How the values were obtained:
[1] = target: T1, …; experiment: SPOT length analysis, dot 33, anti-histidine detection
T1 sequence (peptide): SSDFAKNFV

DFAK = target: T2, DFAK; experiment: SPOT length analysis, dot 85, HRP-S-protein detection
T2 sequence (peptide): DFAK

RSSDF = target: T3, RSSDF; experiment: SPOT length analysis, dot 70, HRP-S-protein detection
T3 sequence (peptide): RSSDF

[2] = target: T4, …; experiment: SPOT length analysis, dot 22, anti-histidine detection
T4 sequence (peptide): RIFRSSDFAK

[3] = target: T5, …; experiment: SPOT length analysis, dot 34, HRP-S-protein detection
T5 sequence (peptide): SDFAKNFVQ

[4] = target: T6, …; experiment: SPOT length analysis, dot 35, anti-histidine detection
T6 sequence (peptide): DFAKNFVQT

[5] = target: T7, …; experiment: SPOT length analysis, dot 5, HRP-S-protein detection
T7 sequence (peptide): IFRSSDFAKNFVQT

[6] = target: T8, …; experiment: SPOT length analysis, dot 13, anti-histidine detection
T8 sequence (peptide): FRSSDFAKNFVQ

FRSSDFA = target: T9, FRSSDFA; experiment: SPOT length analysis, dot 48, HRP-S-protein detection
T9 sequence (peptide): FRSSDFA

SDFAKNFV = target: T10, SDFAKNFV; experiment: SPOT length analysis, dot 42, HRP-S-protein detection
T10 sequence (peptide): SDFAKNFV

VQTD = target: T11, VQTD; experiment: SPOT length analysis, dot 91, anti-histidine detection
T11 sequence (peptide): VQTD

[7] = target: T12, …; experiment: SPOT length analysis, dot 9, HRP-S-protein detection
T12 sequence (peptide): FRSSDFAKNFVQT

[8] = target: T13, …; experiment: SPOT length analysis, dot 21, anti-histidine detection
T13 sequence (peptide): SDFAKNFVQTD

[9] = target: T14, sortilin peptide … on SPOT membrane; experiment: SPOT length analysis, dot 36, HRP-S-protein detection
T14 sequence (peptide, C-terminus anchored to the cellulose membrane through a beta-alanine linker): FAKNFVQTD

DFAKNFVQ = target: T15, DFAKNFVQ; experiment: SPOT length analysis, dot 43, HRP-S-protein detection
T15 sequence (peptide): DFAKNFVQ

FAKNFVQT = target: T16, FAKNFVQT; experiment: SPOT length analysis, dot 44, anti-histidine detection
T16 sequence (peptide): FAKNFVQT

[10] = target: T12, …; experiment: SPOT length analysis, dot 9, anti-histidine detection
[11] = target: T17, …; experiment: SPOT length analysis, dot 6, HRP-S-protein detection
T17 sequence (peptide): FRSSDFAKNFVQTD

[12] = target: T18, …; experiment: SPOT length analysis, dot 8, anti-histidine detection
T18 sequence (peptide): IFRSSDFAKNFVQ

[13] = target: T19, …; experiment: SPOT length analysis, dot 23, HRP-S-protein detection
T19 sequence (peptide): IFRSSDFAKN

FVQTD = target: T20, FVQTD; experiment: SPOT length analysis, dot 78, HRP-S-protein detection
T20 sequence (peptide): FVQTD

AKNFVQT = target: T21, AKNFVQT; experiment: SPOT length analysis, dot 54, HRP-S-protein detection
T21 sequence (peptide): AKNFVQT

[14] = target: T22, …; experiment: SPOT length analysis, dot 20, HRP-S-protein detection
T22 sequence (peptide): SSDFAKNFVQT

NFVQT = target: T23, NFVQT; experiment: SPOT length analysis, dot 77, anti-histidine detection
T23 sequence (peptide): NFVQT

SSDFAKN = target: T24, SSDFAKN; experiment: SPOT length analysis, dot 50, HRP-S-protein detection
T24 sequence (peptide): SSDFAKN

FVQT = target: T25, FVQT; experiment: SPOT length analysis, dot 90, anti-histidine detection
T25 sequence (peptide): FVQT

NFVQTD = target: T26, NFVQTD; experiment: SPOT length analysis, dot 66, anti-histidine detection
T26 sequence (peptide): NFVQTD

AKNFVQ = target: T27, AKNFVQ; experiment: SPOT length analysis, dot 64, HRP-S-protein detection
T27 sequence (peptide): AKNFVQ

FAKN = target: T28, FAKN; experiment: SPOT length analysis, dot 86, anti-histidine detection
T28 sequence (peptide): FAKN

SDFAKN = target: T29, SDFAKN; experiment: SPOT length analysis, dot 61, HRP-S-protein detection
T29 sequence (peptide): SDFAKN

[15] = target: T30, …; experiment: SPOT length analysis, dot 24, anti-histidine detection
T30 sequence (peptide): FRSSDFAKNF

SSDF = target: T31, SSDF; experiment: SPOT length analysis, dot 83, HRP-S-protein detection
T31 sequence (peptide): SSDF

[16] = target: T17, …; experiment: SPOT length analysis, dot 6, anti-histidine detection
DFAKNF = target: T32, DFAKNF; experiment: SPOT length analysis, dot 62, HRP-S-protein detection
T32 sequence (peptide): DFAKNF

FRSSD = target: T33, FRSSD; experiment: SPOT length analysis, dot 69, HRP-S-protein detection
T33 sequence (peptide): FRSSD

[17] = target: T34, …; experiment: SPOT length analysis, dot 12, anti-histidine detection
T34 sequence (peptide): IFRSSDFAKNFV

[18] = target: T35, …; experiment: SPOT length analysis, dot 27, HRP-S-protein detection
T35 sequence (peptide): SDFAKNFVQT

[19] = target: T36, …; experiment: SPOT length analysis, dot 16, HRP-S-protein detection
T36 sequence (peptide): RIFRSSDFAKN

RSSDFAK = target: T37, RSSDFAK; experiment: SPOT length analysis, dot 49, anti-histidine detection
T37 sequence (peptide): RSSDFAK

[20] = target: T38, sortilin peptide … (synthetic, soluble); experiment: SPOT length analysis, dot 11 (peptide here cellulose-bound), anti-histidine detection
T38 sequence (peptide): RIFRSSDFAKNF

AKNFV = target: T39, AKNFV; experiment: SPOT length analysis, dot 75, anti-histidine detection
T39 sequence (peptide): AKNFV

FAKNFVQ = target: T40, FAKNFVQ; experiment: SPOT length analysis, dot 53, anti-histidine detection
T40 sequence (peptide): FAKNFVQ

[21] = target: T41, sortilin peptide … on SPOT membrane; experiment: SPOT length analysis, dot 1, HRP-S-protein detection
T41 sequence (peptide, C-terminus anchored to the cellulose membrane through a beta-alanine linker): RIFRSSDFAKNFVQTD

IFRS = target: T42, IFRS; experiment: SPOT length analysis, dot 80, HRP-S-protein detection
T42 sequence (peptide): IFRS

[22] = target: T43, …; experiment: SPOT length analysis, dot 31, HRP-S-protein detection
T43 sequence (peptide): FRSSDFAKN

FRSSDF = target: T44, FRSSDF; experiment: SPOT length analysis, dot 58, anti-histidine detection
T44 sequence (peptide): FRSSDF

[23] = target: T45, …; experiment: SPOT length analysis, dot 25, anti-histidine detection
T45 sequence (peptide): RSSDFAKNFV

[24] = target: T46, …; experiment: SPOT length analysis, dot 7, HRP-S-protein detection
T46 sequence (peptide): RIFRSSDFAKNFV

B1: recombinant his-S-tagged pro-domain of human BDNF (residues Ala1-Arg110), from pET-30 Xa/LIC, E. coli (protein, not shown: small tags and cut ends)
chain: APMKEANIRGQGGLAYPGVRTHGTLESVNGPKAGSGLTSLADTFEHVIEELLDEDQKVRPNEENNKDADLYTSRVMLSSQVPLEPPLLFLLEEYKNYLDAANMSMRVRR
- BLU His [1]: 18900 BLU
- BLU Sprotein (DFAK): 13300 BLU
- BLU Sprotein (RSSDF): 15500 BLU
- BLU His [2]: 45500 BLU
- BLU Sprotein [3]: 18900 BLU
- BLU His [4]: 19100 BLU
- BLU Sprotein [5]: 190000 BLU
- BLU His [6]: 25800 BLU
- BLU Sprotein (FRSSDFA): 17200 BLU
- BLU Sprotein (SDFAKNFV): 15500 BLU
- BLU His (VQTD): 15100 BLU
- BLU Sprotein [7]: 223000 BLU
- BLU His [8]: 15700 BLU
- BLU Sprotein [9]: 18800 BLU
- BLU Sprotein (DFAKNFVQ): 14700 BLU
- BLU His (FAKNFVQT): 80400 BLU
- BLU His [10]: 19700 BLU
- BLU Sprotein [11]: 38100 BLU
- BLU His [12]: 41600 BLU
- BLU Sprotein [13]: 29800 BLU
- BLU Sprotein (FVQTD): 15100 BLU
- BLU Sprotein (AKNFVQT): 16700 BLU
- BLU Sprotein [14]: 18400 BLU
- BLU His (NFVQT): 17300 BLU
- BLU Sprotein (SSDFAKN): 15900 BLU
- BLU His (FVQT): 15600 BLU
- BLU His (NFVQTD): 15400 BLU
- BLU Sprotein (AKNFVQ): 14100 BLU
- BLU His (FAKN): 15200 BLU
- BLU Sprotein (SDFAKN): 15600 BLU
- BLU His [15]: 20100 BLU
- BLU Sprotein (SSDF): 14000 BLU
- BLU His [16]: 18800 BLU
- BLU Sprotein (DFAKNF): 15200 BLU
- BLU Sprotein (FRSSD): 15000 BLU
- BLU His [17]: 45100 BLU
- BLU Sprotein [18]: 19100 BLU
- BLU Sprotein [19]: 63600 BLU
- BLU His (RSSDFAK): 17300 BLU
- BLU His [20]: 100000 BLU
- BLU His (AKNFV): 17500 BLU
- BLU His (FAKNFVQ): 69600 BLU
- BLU Sprotein [21]: 137000 BLU
- BLU Sprotein (IFRS): 111000 BLU
- BLU Sprotein [22]: 20300 BLU
- BLU His (FRSSDF): 17500 BLU
- BLU His [23]: 23000 BLU
- BLU Sprotein [24]: 168000 BLU
